Columns and labels:
[1] = tested on: C7-C7-VP16 (synthetic (Zif268 variant)); assay: cell_activity; conditions: HeLa luciferase reporter
[2] = tested on: MBP-C7-C7 (six-finger) (synthetic (Zif268 variant, mouse)); assay: EMSA
[3] = target: Zif268 displayed on phage (Mus musculus) (UniProt P08046); assay: SELEX; conditions: phage panning, same level as BSA
[4] = tested on: MBP-Sp1C-C7 (six-finger) (synthetic (Sp1C/Zif268 variant)); assay: EMSA
[5] = tested on: Zif268 variant G6 finger 2 helix residues changed (FIG. 9) (synthetic (Zif268 variant)); assay: SPR
[6] = target: Zif268 variant A14 finger 3 helix residues changed (FIG. 9) (synthetic (Zif268 variant)) (UniProt Q6NTY6); assay: SPR
Sequence of Zif268 variant A14 finger 3 helix residues changed (FIG. 9) (synthetic (Zif268 variant)) (Q6NTY6 whole entry, change not shown): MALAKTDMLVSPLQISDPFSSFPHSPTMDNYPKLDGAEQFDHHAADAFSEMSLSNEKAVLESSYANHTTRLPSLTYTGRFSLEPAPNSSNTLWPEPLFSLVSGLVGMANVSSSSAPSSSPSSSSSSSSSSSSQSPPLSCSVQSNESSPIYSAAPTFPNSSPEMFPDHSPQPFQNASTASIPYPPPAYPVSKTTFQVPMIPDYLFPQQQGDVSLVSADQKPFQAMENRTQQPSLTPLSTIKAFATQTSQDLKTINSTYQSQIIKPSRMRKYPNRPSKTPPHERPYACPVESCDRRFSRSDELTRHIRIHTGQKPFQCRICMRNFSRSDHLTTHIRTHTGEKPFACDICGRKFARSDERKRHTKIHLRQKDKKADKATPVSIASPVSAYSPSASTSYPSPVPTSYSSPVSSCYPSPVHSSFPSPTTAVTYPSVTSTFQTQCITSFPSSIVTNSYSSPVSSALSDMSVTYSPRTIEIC

[7] = tested on: Zif268 variant G4 finger 2 helix residues changed (FIG. 9) (synthetic (Zif268 variant)); assay: SPR
[8] = target: Zif268 variant C9 finger 1 helix residues changed (FIG. 9) (synthetic (Zif268 variant)) (UniProt Q6NTY6); assay: SPR; conditions: equivalent to Zif268
Sequence of Zif268 variant C9 finger 1 helix residues changed (FIG. 9) (synthetic (Zif268 variant)) (Q6NTY6 whole entry, change not shown): as above

[9] = target: MBP-Sp1C (synthetic (human Sp1 variant)) (UniProt P08047); assay: EMSA; conditions: 0.1 mM ZnCl2, RT
Sequence of MBP-Sp1C (synthetic (human Sp1 variant)) (P08047 626-708, change not shown): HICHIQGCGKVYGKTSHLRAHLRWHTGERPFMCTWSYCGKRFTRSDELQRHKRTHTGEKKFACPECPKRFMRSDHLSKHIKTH

[10] = 0.1 mM ZnCl2, 100 mM KCl, poly(dI-dC), RT
[11] = 9 bp half-site, 0.1 mM ZnCl2, RT

Substance: GCGTGGGCGGCGTGGGCG (double strand) [6x C7-C7 site SV40 promoter reporter]
- activity (fold activation) [1]: > 300

Substance: GATGTATGTAGCGGCGGCGGCGGCGGCGTAAGTAATGC (double strand) [(GCG)6 site probe]
- Kd ([2]; 0.1 mM ZnCl2, RT): 17.3 nM

Substance: TFIIIA fingers 1-3 site (panning)
- binding signal (fold less than consensus) [3]: 9

Substance: GCGTGGGCG (double strand) [6x C7 site SV40 promoter reporter]
- activity (fold activation) [1]: 3

Substance: GATGTATGTAGCGTGGGCGGGGGCGGGGTAAGTAATGC (double strand) [Sp1C-C7 site probe]
- Kd [4, 10]: 0.55 nM
- Kd [2, 10]: 2.4 nM

Substance: CCTGCGTGGGCGCCCTTTTGGGCGCCCACGCAGG [Z268N consensus hairpin]
- binding signal (fold weaker than TTG site) [5]: 4
- binding signal (fold lower affinity than Zif268) [6]: 2
- binding signal (fold weaker than TTG site) [7]: 4
- binding signal (fold of Zif268 affinity) [8]: 1

Substance: GATGTATGTAGGGGCGGGGTAAGTAATGC (double strand) [Sp1C site probe]
- Kd [9]: 40.8 nM
- Kd [4, 11]: 27.4 nM

Substance: GCGTGGGCGGGGGCGGGG (double strand) [6x Sp1C-C7 site SV40 promoter reporter]
- activity (fold activation) [1]: 3

Substance: CCTGCGTTGGCGCCCTTTTGGGCGCCAACGCAGG [TTG finger 2 hairpin (HIV-1 subsite)]
- binding signal (fold of Zif268-consensus affinity) ([5]; specificity by on-rate): 1
- binding signal (fold of Zif268-consensus affinity) ([7]; equivalent to Zif268 on its consensus): 1

Substance: GATGTATGTAGCGTGGGCGTAAGTAATGC (double strand) [C7 site probe]
- Kd [4, 11]: 4.9 nM
- Kd [2, 11]: 6.1 nM

Substance: GATGTATGTAGCGTGGGCGGCGTGGGCGTAAGTAATGC (double strand) [C7-C7 site probe]
- Kd ([4]; 0.1 mM ZnCl2, RT): 1.8 nM
- Kd [2, 10]: 0.46 nM

From US6140466
